In article PMC7367873, “Dissecting the sequence determinants for dephosphorylation by the catalytic subunits of phosphatases PP1 and PP2A” (Nature Communications, 2020):
One block for each molecule: values may come before it.

Experiments:
[1] = test system: GFP-14-3-3β and its binding proteins; assay: GFP-14-3-3β co-IP with LC-MS/MS label-free quantification, untreated versus PP1c-treated; design: species or system human; conditions: PP1 vs untreated; label-free quantification
Procedure: (§1) HeLa Kyoto cells expressing transiently transfected pEGFP(C1)-14-3-3β or pEGFP(C1) control plasmid, were incubated with 20 nM Calyculin A (# 9902 S, Cell Signaling Technology) for 12 min. Cells were washed twice on ice with cold PBS and after addition of 500 µL lysis buffer (100 mM NaCl, 10 mM Tris, 0.1% IGEPAL, 1 mM EDTA, 1 mM EGTA, 20 nM Calyculin A, 1x cOmplete Mini protease inhibitor cocktail (Sigma), 1 mM DTT, 1 mM MnCl2) cells were scraped from plates, lysed by 10 pushes through an injection needle (21 G, BD) and the insoluble fraction was pelleted by centrifugation (10 min, 10^4 rcf, 4 °C). Supernatants were then subjected to incubation with 1 µM recombinant phosphatase or buffer for 1 h at 30 °C. Next, we subjected samples to immunoprecipitation using α-GFP nanobodies covalently coupled to agarose beads (2 h, 4 °C, obtained from the EMBL PEPcore Core Facility). Beads were then washed three times with lysis buffer and samples were eluted in 1x LDS sample buffer (Thermo Fisher Scientific) by heating to 70 °C for 10 min.
(§2) The samples were then reduced with 25 mM dithiothreitol (10 min at 70 °C) and alkylated with 55 mM chloroacetamide (room temperature, 30 min, in the dark). Proteins were run on a precast 4–12% NuPAGE gel (ThermoFisher Scientific) for about 1 cm to concentrate the sample prior to in-gel tryptic digestion, which was performed according to the standard procedures. The peptides obtained were dried to completeness and resuspended in 12 µL of buffer A (0.1% FA), and 5 µL of sample were injected per MS measurement. The experiment was carried out in three independent replicates.
(§3) The samples were analyzed by LC-MS/MS on a Dionex Ultimate 3000 nano-HPLC coupled online to a Fusion Lumos Tribrid mass spectrometer (Thermo Fisher Scientific). Peptides were delivered to a trap column (75 µm × 2 cm, packed in-house with 5 µm C18 resin; Reprosil PUR AQ, Dr. Maisch) and washed using 0.1% FA at a flow rate of 5 µL/min for 10 min. Subsequently, peptides were transferred to an analytical column (75 µm × 45 cm, packed in-house with 3 µm C18 resin; Reprosil Gold) applying a flow rate of 300 nL/min and separated using a 60 min linear gradient from 4% to 32% LC solvent B (0.1% FA, 5% DMSO in ACN) in LC solvent A (0.1% FA in 5% DMSO). The eluate from the analytical column was sprayed via a stainless steel emitter (Thermo Fisher Scientific) at a source voltage of 2.1 kV into the mass spectrometer. The transfer capillary was heated to 275 °C. The Fusion Lumos was operated in positive ionization mode and data-dependent acquisition (DDA), automatically switching between MS1 and MS2 spectrum acquisition. Full scan MS1 spectra were recorded in the Orbitrap from 360 to 1300 m/z at a resolution of 60k (automatic gain control (AGC) target value of 4e5 charges, maximum injection time (maxIT) of 50 ms). Up to 20 peptide precursors were isolated (isolation window, 1.7 m/z; maximum injection time, 25 ms; and AGC value, 1e5), fragmented by high-energy collision-induced dissociation (HCD) using 30% normalized collision energy (NCE), and analyzed at a resolution of 15k in the Orbitrap. Precursor ions that were singly charged, unassigned, or with charge states >6+ were excluded. The dynamic exclusion duration of fragmented precursor ions was 20 s.
(§4) Peptide and protein identification and LFQ were performed using MaxQuant software (version 1.6.1.0)[64] by searching the data against all canonical protein sequences as annotated in the Swissprot reference database (human proteins only, 20193 entries, downloaded 22 March 2016, internally annotated with PFAM domains) using the embedded search engine Andromeda[65]. The MaxQuant search was performed using two variable modifications; oxidation of methionine and N-terminal protein acetylation. Carbamidomethylation on cysteines was specified as a fixed modification. Trypsin (Trypsin/P) was specified as the proteolytic enzyme with up to two allowed missed cleavage sites.

GFP-14-3-3β = GFP-14-3-3β co-IP with LC-MS/MS, untreated GFP-14-3-3β versus GFP control (14-3-3 interactome); assay type: binding, human; conditions: untreated vs GFP; label-free quantification
Procedure: as §1, §2, §3, §4

B1: BANF1 (protein, UniProt O75531 1-89, looked up)
Barrier-to-autointegration …: MTTSQKHRDFVAEPMGEKPVGSLAGIGEVLGKKLEERGFDKAYVVLGQFLVLKKDEDLFREWLKDTCGANAKQSRDCFGCLREWCDAFL
Difference (log2), PP1 vs untreated [1]: 1.068 log2
Difference (log2), untreated vs GFP (GFP-14-3-3β): -2.499 log2

B5: DARS (protein, UniProt P14868 1-501, looked up)
Aspartate--tRNA ligase, …: MPSASASRKSQEKPREIMDAAEDYAKERYGISSMIQSQEKPDRVLVRVRDLTIQKADEVVWVRARVHTSRAKGKQCFLVLRQQQFNVQALVAVGDHASKQMVKFAANINKESIVDVEGVVRKVNQKIGSCTQQDVELHVQKIYVISLAEPRLPLQLDDAVRPEAEGEEEGRATVNQDTRLDNRVIDLRTSTSQAVFRLQSGICHLFRETLINKGFVEIQTPKIISAASEGGANVFTVSYFKNNAYLAQSPQLYKQMCICADFEKVFSIGPVFRAEDSNTHRHLTEFVGLDIEMAFNYHYHEVMEEIADTMVQIFKGLQERFQTEIQTVNKQFPCEPFKFLEPTLRLEYCEALAMLREAGVEMGDEDDLSTPNEKLLGHLVKEKYDTDFYILDKYPLAVRPFYTMPDPRNPKQSNSYDMFMRGEEILSGAQRIHDPQLLTERALHHGIDLEKIKAYIDSFRFGAPPHAGGGIGLERVTMLFLGLHNVRQTSMFPRDPKRLTP
Difference (log2), PP1 vs untreated [1]: 1.065 log2
Difference (log2), untreated vs GFP (GFP-14-3-3β): -1.63 log2

B6: ABCD3 (protein, UniProt P28288 1-659, looked up)
ATP-binding cassette …: MAAFSKYLTARNSSLAGAAFLLLCLLHKRRRALGLHGKKSGKPPLQNNEKEGKKERAVVDKVFFSRLIQILKIMVPRTFCKETGYLVLIAVMLVSRTYCDVWMIQNGTLIESGIIGRSRKDFKRYLLNFIAAMPLISLVNNFLKYGLNELKLCFRVRLTKYLYEEYLQAFTYYKMGNLDNRIANPDQLLTQDVEKFCNSVVDLYSNLSKPFLDIVLYIFKLTSAIGAQGPASMMAYLVVSGLFLTRLRRPIGKMTITEQKYEGEYRYVNSRLITNSEEIAFYNGNKREKQTVHSVFRKLVEHLHNFILFRFSMGFIDSIIAKYLATVVGYLVVSRPFLDLSHPRHLKSTHSELLEDYYQSGRMLLRMSQALGRIVLAGREMTRLAGFTARITELMQVLKDLNHGKYERTMVSQQEKGIEGVQVIPLIPGAGEIIIADNIIKFDHVPLATPNGDVLIRDLNFEVRSGANVLICGPNGCGKSSLFRVLGELWPLFGGRLTKPERGKLFYVPQRPYMTLGTLRDQVIYPDGREDQKRKGISDLVLKEYLDNVQLGHILEREGGWDSVQDWMDVLSGGEKQRMAMARLFYHKPQFAILDECTSAVSVDVEGYIYSHCRKVGITLFTVSHRKSLWKHHEYYLHMDGRGNYEFKQITEDTVEFGS
Difference (log2), PP1 vs untreated [1]: 1.116 log2
Difference (log2), untreated vs GFP (GFP-14-3-3β): -0.7267 log2

B7: CGN (protein, UniProt Q9P2M7 1-1203, looked up)
Cingulin: MEQAPNMAEPRGPVDHGVQIRFITEPVSGAEMGTLRRGGRRPAKDARASTYGVAVRVQGIAGQPFVVLNSGEKGGDSFGVQIKGANDQGASGALSSDLELPENPYSQVKGFPAPSQSSTSDEEPGAYWNGKLLRSHSQASLAGPGPVDPSNRSNSMLELAPKVASPGSTIDTAPLSSVDSLINKFDSQLGGQARGRTGRRTRMLPPEQRKRSKSLDSRLPRDTFEERERQSTNHWTSSTKYDNHVGTSKQPAQSQNLSPLSGFSRSRQTQDWVLQSFEEPRRSAQDPTMLQFKSTPDLLRDQQEAAPPGSVDHMKATIYGILREGSSESETSVRRKVSLVLEKMQPLVMVSSGSTKAVAGQGELTRKVEELQRKLDEEVKKRQKLEPSQVGLERQLEEKTEECSRLQELLERRKGEAQQSNKELQNMKRLLDQGEDLRHGLETQVMELQNKLKHVQGPEPAKEVLLKDLLETRELLEEVLEGKQRVEEQLRLRERELTALKGALKEEVASRDQEVEHVRQQYQRDTEQLRRSMQDATQDHAVLEAERQKMSALVRGLQRELEETSEETGHWQSMFQKNKEDLRATKQELLQLRMEKEEMEEELGEKIEVLQRELEQARASAGDTRQVEVLKKELLRTQEELKELQAERQSQEVAGRHRDRELEKQLAVLRVEADRGRELEEQNLQLQKTLQQLRQDCEEASKAKMVAEAEATVLGQRRAAVETTLRETQEENDEFRRRILGLEQQLKETRGLVDGGEAVEARLRDKLQRLEAEKQQLEEALNASQEEEGSLAAAKRALEARLEEAQRGLARLGQEQQTLNRALEEEGKQREVLRRGKAELEEQKRLLDRTVDRLNKELEKIGEDSKQALQQLQAQLEDYKEKARREVADAQRQAKDWASEAEKTSGGLSRLQDEIQRLRQALQASQAERDTARLDKELLAQRLQGLEQEAENKKRSQDDRARQLKGLEEKVSRLETELDEEKNTVELLTDRVNRGRDQVDQLRTELMQERSARQDLECDKISLERQNKDLKTRLASSEGFQKPSASLSQLESQNQLLQERLQAEEREKTVLQSTNRKLERKVKELSIQIEDERQHVNDQKDQLSLRVKALKRQVDEAEEEIERLDGLRKKAQREVEEQHEVNEQLQARIKSLEKDSWRKASRSAAESALKNEGLSSDEEFDSVYDPSSIASLLTESNLQTSSC
Difference (log2), PP1 vs untreated [1]: 1.065 log2
Difference (log2), untreated vs GFP (GFP-14-3-3β): 1.896 log2

Second part, led by results:

Difference (log2), PP1 vs untreated [1]: 1.074 log2
B2: LGALS3BP (protein, UniProt Q08380 19-585, looked up)
Galectin-3-binding protein: VNDGDMRLADGGATNQGRVEIFYRGQWGTVCDNLWDLTDASVVCRALGFENATQALGRAAFGQGSGPIMLDEVQCTGTEASLADCKSLGWLKSNCRHERDAGVVCTNETRSTHTLDLSRELSEALGQIFDSQRGCDLSISVNVQGEDALGFCGHTVILTANLEAQALWKEPGSNVTMSVDAECVPMVRDLLRYFYSRRIDITLSSVKCFHKLASAYGARQLQGYCASLFAILLPQDPSFQMPLDLYAYAVATGDALLEKLCLQFLAWNFEALTQAEAWPSVPTDLLQLLLPRSDLAVPSELALLKAVDTWSWGERASHEEVEGLVEKIRFPMMLPEELFELQFNLSLYWSHEALFQKKTLQALEFHTVPFQLLARYKGLNLTEDTYKPRIYTSPTWSAFVTDSSWSARKSQLVYQSRRGPLVKYSSDYFQAPSDYRYYPYQSFQTPQHPSFLFQDKRVSWSLVYLPTIQSCWNYGFSCSSDELPVLGLTKSGGSDRTIAYENKALMLCEGLFVADVTDFEGWKAAIPSALDTNSSKSTSSFPCPAGHFNGFRTVIRPFYLTNSSGVD
Difference (log2), untreated vs GFP (GFP-14-3-3β): -0.5352 log2

Difference (log2), PP1 vs untreated [1]: 1.104 log2
B3: RTCB (protein, UniProt Q9Y3I0 1-505, looked up)
RNA-splicing ligase RtcB …: MSRSYNDELQFLEKINKNCWRIKKGFVPNMQVEGVFYVNDALEKLMFEELRNACRGGGVGGFLPAMKQIGNVAALPGIVHRSIGLPDVHSGYGFAIGNMAAFDMNDPEAVVSPGGVGFDINCGVRLLRTNLDESDVQPVKEQLAQAMFDHIPVGVGSKGVIPMNAKDLEEALEMGVDWSLREGYAWAEDKEHCEEYGRMLQADPNKVSARAKKRGLPQLGTLGAGNHYAEIQVVDEIFNEYAAKKMGIDHKGQVCVMIHSGSRGLGHQVATDALVAMEKAMKRDKIIVNDRQLACARIASPEGQDYLKGMAAAGNYAWVNRSSMTFLTRQAFAKVFNTTPDDLDLHVIYDVSHNIAKVEQHVVDGKERTLLVHRKGSTRAFPPHHPLIAVDYQLTGQPVLIGGTMGTCSYVLTGTEQGMTETFGTTCHGAGRALSRAKSRRNLDFQDVLDKLADMGIAIRVASPKLVMEEAPESYKNVTDVVNTCHDAGISKKAIKLRPIAVIKG
Difference (log2), untreated vs GFP (GFP-14-3-3β): -0.6754 log2

Difference (log2), PP1 vs untreated [1]: 1.071 log2
B4: TMEM43 (protein, UniProt Q9BTV4 2-400, looked up)
Transmembrane protein 43: AANYSSTSTRREHVKVKTSSQPGFLERLSETSGGMFVGLMAFLLSFYLIFTNEGRALKTATSLAEGLSLVVSPDSIHSVAPENEGRLVHIIGALRTSKLLSDPNYGVHLPAVKLRRHVEMYQWVETEESREYTEDGQVKKETRYSYNTEWRSEIINSKNFDREIGHKNPSAMAVESFMATAPFVQIGRFFLSSGLIDKVDNFKSLSLSKLEDPHVDIIRRGDFFYHSENPKYPEVGDLRVSFSYAGLSGDDPDLGPAHVVTVIARQRGDQLVPFSTKSGDTLLLLHHGDFSAEEVFHRELRSNSMKTWGLRAAGWMAMFMGLNLMTRILYTLVDWFPVFRDLVNIGLKAFAFCVATSLTLLTVAAGWLFYRPLWALLIAGLALVPILVARTRVPAKKLE
Difference (log2), untreated vs GFP (GFP-14-3-3β): -0.2983 log2
